Test results reported in paper PMC10307831, “GATA zinc finger protein p66β promotes breast cancer cell migration by acting as a co-activator of Snail”.

B1: COL6A2-G-box-MT (dsDNA)
DNA 1: GGCCCCCTAATAATATCCGCG
DNA 2: GCGGATATTATTAGGGGGCC
B2: COL6A2-G-box-WT (dsDNA)
DNA 1: GGCCCCCTCCTCCCATCCGCG
DNA 2: CGCGGATGGGAGGAGGGGGCC

Legend:
[1] = biological target: T1, Flag-p66β (UniProt Q8WXI9 1-593); test: competition; unlabeled mutant vs biotinylated WT probe; EMSA: 10 mM Tris pH 7.5, 50 mM KCl, 1 mM DTT, 5 mM MgCl2, 2.5% glycerol, 0.05% NP-40, 50 ng/ul poly(dI.dC), 600 fmol probe, 12 ug GST protein in 20 ul; gel 6% 0.5x TBE 4 C. Pull-down: NeutrAvidin beads, 8 h 4 C, washed in IP buffer (50 mM Tris pH 7.5, 150 mM NaCl, 1% Triton X-100); settings: protein: recombinant; tags: Flag; 3' overhang 1 nt on strand 1 as printed (reverse strand lacks 5' C)
[2] = biological target: T2, GST-Snail (UniProt O95863 1-264); test: as above; settings: protein: recombinant; tags: N-terminal GST (pGEX-4T-1); 3' overhang 1 nt on strand 1 as printed (reverse strand lacks 5' C)
[3] = biological target: T1, Flag-p66β; test: pull-down; p66β alone; relatively high affinity; EMSA: 10 mM Tris pH 7.5, 50 mM KCl, 1 mM DTT, 5 mM MgCl2, 2.5% glycerol, 0.05% NP-40, 50 ng/ul poly(dI.dC), 600 fmol probe, 12 ug GST protein in 20 ul; gel 6% 0.5x TBE 4 C. Pull-down: NeutrAvidin beads, 8 h 4 C, washed in IP buffer (50 mM Tris pH 7.5, 150 mM NaCl, 1% Triton X-100); settings: protein: recombinant; tags: Flag; label: biotin (probe); blunt
[4] = biological target: T2, GST-Snail; test: EMSA; 5 mM Mg2+, poly(dI.dC); EMSA: 10 mM Tris pH 7.5, 50 mM KCl, 1 mM DTT, 5 mM MgCl2, 2.5% glycerol, 0.05% NP-40, 50 ng/ul poly(dI.dC), 600 fmol probe, 12 ug GST protein in 20 ul; gel 6% 0.5x TBE 4 C. Pull-down: NeutrAvidin beads, 8 h 4 C, washed in IP buffer (50 mM Tris pH 7.5, 150 mM NaCl, 1% Triton X-100); settings: protein: recombinant; tags: N-terminal GST (pGEX-4T-1); label: biotin (probe); blunt

T1 sequence (Q8WXI9 whole entry): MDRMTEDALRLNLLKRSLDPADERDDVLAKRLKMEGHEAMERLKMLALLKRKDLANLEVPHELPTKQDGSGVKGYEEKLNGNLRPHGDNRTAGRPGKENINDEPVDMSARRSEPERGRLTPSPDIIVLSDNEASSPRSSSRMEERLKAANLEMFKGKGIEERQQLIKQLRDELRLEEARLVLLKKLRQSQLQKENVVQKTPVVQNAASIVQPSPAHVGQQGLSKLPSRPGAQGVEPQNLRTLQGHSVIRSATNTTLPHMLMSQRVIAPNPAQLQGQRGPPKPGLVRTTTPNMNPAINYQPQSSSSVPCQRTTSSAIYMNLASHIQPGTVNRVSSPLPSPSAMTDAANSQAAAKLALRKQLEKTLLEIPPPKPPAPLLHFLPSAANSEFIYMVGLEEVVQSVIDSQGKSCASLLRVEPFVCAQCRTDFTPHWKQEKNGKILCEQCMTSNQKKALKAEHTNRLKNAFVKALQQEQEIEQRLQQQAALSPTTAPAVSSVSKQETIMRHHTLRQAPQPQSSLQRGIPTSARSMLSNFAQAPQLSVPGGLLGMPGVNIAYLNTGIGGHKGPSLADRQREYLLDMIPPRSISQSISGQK
T2 sequence (O95863 whole entry): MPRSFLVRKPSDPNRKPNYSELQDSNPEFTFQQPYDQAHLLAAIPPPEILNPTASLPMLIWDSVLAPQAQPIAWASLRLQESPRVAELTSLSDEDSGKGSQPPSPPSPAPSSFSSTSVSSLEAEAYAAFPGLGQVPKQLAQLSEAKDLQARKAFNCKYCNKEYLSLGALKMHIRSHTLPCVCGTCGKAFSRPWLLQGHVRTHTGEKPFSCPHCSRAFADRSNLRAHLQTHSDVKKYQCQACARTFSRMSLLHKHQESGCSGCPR

Binder	binding result [1]	binding result [2]	binding result [3]	binding result [4]
B1	no binding	no binding		
B2			binds	binds
